17 molecules from US20090155164A1 (Amgen, published 2009) can be followed below.

B1: anti-c-fms hybridoma antibody 1.66 (antibody, IgG1, V domains shown)
VH: QVQLVESGGGVVQPGRSLRLSCAASGFTFSSYGMHWVRQAPGKGLEWVAVIWYDGSNEYYADSVKGRFTISRDNSKSTLYLQMNSLRAEDTAVYYCAHSSGNYYDMDVWGQGTTVTVSS
VL: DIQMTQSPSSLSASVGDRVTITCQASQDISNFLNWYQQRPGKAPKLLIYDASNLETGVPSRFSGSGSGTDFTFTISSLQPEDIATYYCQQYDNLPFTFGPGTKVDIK
notes: Hybridoma IgG1 (cohort 1); also called 1.66.1; 1.66.2
B2: anti-c-fms hybridoma antibody 1.42 (antibody, IgG1, V domains shown)
VH: QVQLVQSGAEVKKPGASVKVSCKASGYTFTSYGISWVRQAPGQGLEWMGWISAYNGNTNYAQKLQGRVTMTTDTSTSTAYMELRSLRSDDTAVYYCARESWFGEVFFDYWGQGTLVTVSS
VL: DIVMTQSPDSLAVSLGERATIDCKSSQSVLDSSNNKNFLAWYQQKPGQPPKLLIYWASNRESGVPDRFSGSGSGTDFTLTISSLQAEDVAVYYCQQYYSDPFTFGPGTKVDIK
notes: Hybridoma IgG1 (cohort 1); also called 1.42.3
B3: anti-c-fms hybridoma antibody 1.30 (antibody, IgG1, V domains shown)
VH: B2 VH
VL: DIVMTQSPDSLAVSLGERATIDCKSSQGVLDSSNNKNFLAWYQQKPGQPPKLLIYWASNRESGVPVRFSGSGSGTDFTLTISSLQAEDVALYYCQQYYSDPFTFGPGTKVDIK
notes: Hybridoma IgG1 (cohort 1); also called 1.30.2; 1.30.3
B4: anti-c-fms hybridoma antibody 1.2 (antibody, V domains shown)
VH: B2 VH
VL: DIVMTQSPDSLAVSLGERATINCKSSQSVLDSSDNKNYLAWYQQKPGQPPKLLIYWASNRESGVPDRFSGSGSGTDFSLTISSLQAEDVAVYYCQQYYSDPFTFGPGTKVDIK
notes: Hybridoma IgG1 (cohort 1); also called 1.2.1
B5: anti-c-fms hybridoma antibody 2.508 (antibody, IgG2, V domains shown)
VH: QVQLVQSGAEVKKPGASVKVSCKVSGYTLTELSMHWVRQAPGKGLEWMGGFDPEDGETIYAQKFQGRVTMTEDTSTDTAYMELSSLRSEDTAVYYCATAGLEIRWFDPWGQGTLVTVSS
VL: DIVMTQSPLSLPVTPGEPASISCRSSQSLLHSNGYNYLDWYLQKPGQSPQFLIYLGSIRASGVPDRFSGSGSGTDFALTISRVEAEDVGVYYCMQALQTPRTFGQGTKVEIK
notes: Hybridoma IgG2 (cohort 2); also called 2.508.1; 2.508.2
B6: anti-c-fms hybridoma antibody 2.534 (antibody, IgG2, V domains shown)
VH: QVQLQESGPGLVKPSQTLSLTCTVSGGSISSGGYYWSWIRQHPGKGLEWIGYISYSGDTYYNPSLKSRLTISVDTSKHQFSLRLSSVTSADTAVYYCASLDLYGDYFDYWGQGTLVTVSS
VL: EIVLTQSPDFQSVTPKEKVTITCRASQYIGSSLHWYQQTPDQSPKLLINYVSQSFSGVPSRFSGSGSGTDFTLTINSLEAEDAATYYCHQSSSLPFTFGPGTKVDIK
notes: Hybridoma IgG2 (cohort 2); also called 2.534.1; 2.534.2
B7: anti-c-fms hybridoma antibody 1.64 (antibody, IgG1, V domains shown)
VH: EVQLVESGGGLVQPGGSLRLSCAASGFTFSSYDMHWVRQATGKGLEWVSGIGTAGDTYYPGSVKGRFNISRENAKNSLYLQMNSLRAGDTAVYYCAREGSWYGFDYWGQGTLVTVSS
VL: EIVLTQSPGTLSLSPGERATLSCRASQSVSSGYLAYLAWYQQKPGQAPRLLIYGASSTATGIPDRFSGSGSGTDFTLTISRLEPEDFAVYYCQQYGSSPITFGQGTRLEIK
notes: Hybridoma IgG1 (cohort 1); also called 1.64.1; 1.64.2
B8: anti-c-fms hybridoma antibody 1.33.1.1 (antibody, IgG1, V domains shown)
VH: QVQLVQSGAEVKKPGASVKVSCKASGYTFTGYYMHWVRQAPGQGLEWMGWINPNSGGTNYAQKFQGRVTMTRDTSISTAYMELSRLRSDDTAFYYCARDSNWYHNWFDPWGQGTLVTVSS
VL: DIQMTQSPSSLSASVGDRVTITCRASQSISDYLNWYQQKPGKAPNLLIYAASSLQSGVPSRFSGSGSGTDFTLTISSLQPEDFATYFCQQTYSDPFTFGPGTKVDIK
notes: Hybridoma IgG1 (cohort 1)
B9: anti-c-fms hybridoma antibody 1.90 (antibody, IgG1, V domains shown)
VH: B1 VH with E58K, S77N, H98S, G101S, Y103F
VL: DIQMTQSPSSLSASVGDRVTITCQASQDISNYLNWYQQKPGKAPKLLIYDASNLETGVPSRFSGSGSGTDFTFTISSLQPEDIATYYCQRYDDLPITFGQGTRLEIK
notes: Hybridoma IgG1 (cohort 1); also called 1.90.2
B10: anti-c-fms hybridoma antibody 1.13 (antibody, V domains shown)
VH: QVQLQESGPGLVKPSETLSLTCTVSGGSVSSGGYYWSWIRQPPGKGLEWIGYIYYSGSTNYNPSLKSRVTISVDTSKNQFSLKLSSVTAADTAVYYCAAGIAATGTLFDCWGQGTLVTVSS
VL: B9 VL with T74I, R90Q, Y91F, D93N, I96P, Q100G, R103K, L104V, I106S
notes: Hybridoma IgG1 (cohort 1)
B11: anti-c-fms hybridoma antibody 2.369 (antibody, IgG2, V domains shown)
VH: QVQLVQSGAEVKKPGASVKVSCKVSGYTLTELSMHWVRQAPGKGLEWMGGFDPEDGETIYAQKFQGRVTMTEDTSTDTAYMELSSLRSEDTAVYYCATRAGTTLAYYYYAMDVWGQGTTVTVSS
VL: DIQMTQSPSSLSASVGDRVTITCRASQSISRYLNWYQQKPGKAPNLLIHAASSLQSGVPSRFSGSGSGTDFTLTISSLQPEDFATYYCQQSYITPPSFGQGTKLEIK
notes: Hybridoma IgG2 (cohort 2); also called 2.369.3
B12: anti-c-fms hybridoma antibody 2.65 (antibody, IgG2, V domains shown)
VH: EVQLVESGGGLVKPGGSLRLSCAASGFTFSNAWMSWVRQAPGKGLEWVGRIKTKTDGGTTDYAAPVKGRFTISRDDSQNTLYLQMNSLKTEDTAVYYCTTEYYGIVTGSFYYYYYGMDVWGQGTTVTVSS
VL: DIQMTQSPSSLSASVGDRVTITCQASQDINNYLNWYQQKPGKAPKLLIYDASNLETGVPSRFSGSGSGTDFTFTISSLQPEDIATYYCQQYDDLLTFGGGTKVEIK
notes: Hybridoma IgG2 (cohort 2); also called 2.65.2
B13: anti-c-fms hybridoma antibody 1.16 (antibody, IgG1, V domains shown)
VH: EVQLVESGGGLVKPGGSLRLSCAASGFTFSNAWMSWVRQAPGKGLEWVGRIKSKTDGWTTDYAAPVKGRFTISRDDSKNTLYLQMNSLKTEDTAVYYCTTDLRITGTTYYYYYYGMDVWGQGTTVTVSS
VL: B12 VL with N30S, L46F, D93N, L95I, G99Q, K102R, V103L
notes: Hybridoma IgG1 (cohort 1)
B14: anti-c-fms hybridoma antibody 2.550 (antibody, IgG2, V domains shown)
VH: QVQLVQSGAEVKKPGASVKVSCKASGYTLTSYGISWVRQAPGQGLEWMGWISAYNGNPNYAQKFQGRVTMTTDTSTSTAYMELRSLRSDDTAVYYCARDQGLLGFGELEGLFDYWGQGTLVTVSS
VL: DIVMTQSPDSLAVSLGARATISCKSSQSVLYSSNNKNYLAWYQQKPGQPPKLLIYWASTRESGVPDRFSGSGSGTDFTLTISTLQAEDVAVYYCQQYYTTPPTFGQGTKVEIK
notes: Hybridoma IgG2 (cohort 2)
B15: anti-c-fms hybridoma antibody 1.131 (antibody, IgG1, V domains shown)
VH: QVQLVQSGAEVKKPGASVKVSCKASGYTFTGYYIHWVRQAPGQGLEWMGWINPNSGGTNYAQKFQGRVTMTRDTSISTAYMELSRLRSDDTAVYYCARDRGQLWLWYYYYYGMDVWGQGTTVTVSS
VL: DNVMTQTPLSLSVTPGQPASISCKSSQSLLHSDGKTYLYWYLQKPGQPPQLLIYEASNRFSGVPDRFSGSGSGTDFTLKISRVEAEDVGVYYCMQSIQLPLTFGGGTKVEIK
notes: Hybridoma IgG1 (cohort 1); also called 1.131.1
B16: anti-c-fms hybridoma antibody 2.131 (antibody, IgG2, V domains shown)
VH: QVQLQESGPGLVKPSETLSLTCTVSGGSISNYYWSWIRQSAGKGLEWIGRIYTSGSTHYNPSLKSRIIMSVDTSKNQFSLKLSSVTAADTAVYYCARDRVFYGMDVWGQGTTVTVSS
VL: DIQMTQSPSSLSASVGDRVTITCRASQGFSNYLAWYQQKPGKVPKLLIYAASTLQSGVPSRFSGSGSGTDFTLTISSLQPEDVATYYCQKYNSAPLTFGGGTKVEIK
notes: Hybridoma IgG2 (cohort 2); also called 2.131.2
B17: anti-c-fms hybridoma antibody 1.72 (antibody, IgG1, V domains shown)
VH: EVQLVESGGGLVEPGGSLRLSCAASGFTFSTAWMSWVRQAPGKGLEWVGRIKSKTDGGTTDYAAPVKGRFTISRDDSKNTLYLQMNSLKNEDTAVYYCTTEGPYSNYGYYYYGVDVWGQGTTVTVSS
VL: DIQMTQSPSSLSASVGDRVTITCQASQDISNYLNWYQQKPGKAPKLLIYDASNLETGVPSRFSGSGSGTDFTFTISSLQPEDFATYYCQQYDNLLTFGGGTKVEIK
notes: Hybridoma IgG1 (cohort 1); also called 1.72.2

Positions count from the first letter of the chain named. Bounds are passed on as bounds.

T3 sequence (P07333 20-512): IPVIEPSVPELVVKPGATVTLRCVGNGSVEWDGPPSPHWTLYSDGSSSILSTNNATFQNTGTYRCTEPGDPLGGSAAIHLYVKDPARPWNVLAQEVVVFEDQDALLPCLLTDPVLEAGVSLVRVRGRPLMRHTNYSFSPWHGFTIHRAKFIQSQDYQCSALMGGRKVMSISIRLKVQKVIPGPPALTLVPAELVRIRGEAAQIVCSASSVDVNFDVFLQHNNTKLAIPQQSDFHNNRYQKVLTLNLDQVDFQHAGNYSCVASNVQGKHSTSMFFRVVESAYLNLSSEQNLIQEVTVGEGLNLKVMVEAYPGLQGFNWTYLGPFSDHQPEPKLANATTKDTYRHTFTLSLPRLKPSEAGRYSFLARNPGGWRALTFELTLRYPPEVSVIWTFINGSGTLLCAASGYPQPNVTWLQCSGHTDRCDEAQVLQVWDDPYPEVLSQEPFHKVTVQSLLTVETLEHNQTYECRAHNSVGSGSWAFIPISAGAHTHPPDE
T1 sequence (P07333 20-972): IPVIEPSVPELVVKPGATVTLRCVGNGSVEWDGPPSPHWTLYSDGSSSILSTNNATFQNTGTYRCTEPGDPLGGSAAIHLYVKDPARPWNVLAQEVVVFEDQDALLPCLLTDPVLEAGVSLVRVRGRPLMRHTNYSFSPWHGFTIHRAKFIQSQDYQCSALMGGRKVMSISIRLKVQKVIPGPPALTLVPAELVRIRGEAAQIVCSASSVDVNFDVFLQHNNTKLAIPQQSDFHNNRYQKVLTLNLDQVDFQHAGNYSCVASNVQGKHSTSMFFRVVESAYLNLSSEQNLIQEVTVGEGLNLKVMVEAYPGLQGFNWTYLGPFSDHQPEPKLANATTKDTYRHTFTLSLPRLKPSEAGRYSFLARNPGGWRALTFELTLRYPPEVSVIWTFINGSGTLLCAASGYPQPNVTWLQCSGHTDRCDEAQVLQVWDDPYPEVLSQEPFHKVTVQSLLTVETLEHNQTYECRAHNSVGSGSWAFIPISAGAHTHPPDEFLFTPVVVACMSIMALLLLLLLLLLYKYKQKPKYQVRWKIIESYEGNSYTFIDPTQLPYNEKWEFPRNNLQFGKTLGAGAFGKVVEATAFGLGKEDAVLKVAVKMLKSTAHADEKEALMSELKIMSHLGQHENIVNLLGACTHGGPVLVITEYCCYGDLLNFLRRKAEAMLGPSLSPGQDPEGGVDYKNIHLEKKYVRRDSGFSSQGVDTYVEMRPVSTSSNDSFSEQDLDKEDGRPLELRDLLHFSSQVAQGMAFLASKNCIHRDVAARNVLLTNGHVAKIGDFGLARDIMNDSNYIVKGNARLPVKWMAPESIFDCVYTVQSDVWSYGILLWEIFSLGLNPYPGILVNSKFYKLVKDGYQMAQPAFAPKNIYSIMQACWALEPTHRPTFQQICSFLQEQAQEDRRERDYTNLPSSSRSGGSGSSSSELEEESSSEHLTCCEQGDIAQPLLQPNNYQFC

One experiment addresses T1, human c-fms, full length, on cells (human, UniProt P07333 20-972). Nature of the experiment: cell-based or functional assay.
Consider B1, for which the “AML-5 bioassay IC50” value is 4 ng/mL and the “Human CD14+ monocytes bioassay IC50” value stood at 10 ng/mL.

For the molecule B2, the “AML-5 bioassay IC50” value stood at 3 ng/mL and the “Human CD14+ monocytes bioassay IC50” value is 10 ng/mL.

As to B3, the “AML-5 bioassay IC50” value amounted to 6 ng/mL and the “Human CD14+ monocytes bioassay IC50” value is 10 ng/mL.

As to B4, the “AML-5 bioassay IC50” value amounted to 0.9 ng/mL and the “Human CD14+ monocytes bioassay IC50” value is less than 1 ng/mL.

As to B5, the “AML-5 bioassay IC50” value was 5 ng/mL and the “Human CD14+ monocytes bioassay IC50” value turned out to be 20 ng/mL.

With B6, the “AML-5 bioassay IC50” value turned out to be 3 ng/mL and the “Human CD14+ monocytes bioassay IC50” value amounted to 7 ng/mL.

Turning to B7, the “AML-5 bioassay IC50” value was found to be 0.6 ng/mL and the “Human CD14+ monocytes bioassay IC50” value was determined as 2 ng/mL.

A further experiment has as its target T2, cynomolgus monkey c-fms on primary bone marrow cells (cynomolgus monkey). Nature of the experiment: cell-based or functional assay.
For B1, the “Cynomolgus bone marrow bioassay IC50” value was found to be 7 ng/mL.

As to B3, the “Cynomolgus bone marrow bioassay IC50” value stood at 10 ng/mL.

Turning to B4, the “Cynomolgus bone marrow bioassay IC50” value worked out at 6 ng/mL.

A further experiment addresses T3, monomeric human c-fms (residues 1-512)-pHis (human, UniProt P07333 20-512).
T3 construct: Construct stated as residues 1-512; signal stated as amino acids 1-19 and left out; also called human c-fms (1-512).pHIS; monomeric c-fms
Nature of the experiment: Biacore, low resolution; hybridoma mAb captured on anti-human IgG, monomeric c-fms-pHis analyte at 125 nM. The protocol:
Anti-human IgG was immobilized on all four flow cells of a sensor chip using amine coupling. Crude hybridoma samples were diluted into halves and captured on the anti-IgG surface. […] Sequence lineage analyses were also performed on the 29 hybridomas (see, FIG. 2).
For orientation: Surface plasmon resonance follows binding to a sensor surface in real time, without labels.
As a reminder, the Kd is the concentration at which binding is half-saturated. As usually defined, the koff is a measure of how fast the partners let go of each other. By kon is commonly meant the rate constant with which the complex forms. In the case of B8, the affinity, expressed as Kd, was 1200 pM; the koff is 0.000116 s⁻¹; the kon is 98900 M⁻¹ s⁻¹.

B1 gave a Kd of 23000 pM, an off-rate (koff) of 0.0055 s⁻¹ and a kon of 239000 M⁻¹ s⁻¹.

B9 yielded a Kd of 10000 pM, an off-rate constant (koff) of 0.002 s⁻¹ and a kon of 193000 M⁻¹ s⁻¹.

The molecule B10 displayed a dissociation constant (Kd) of 6400 pM, a koff of 0.000773 s⁻¹ and a kon of 120000 M⁻¹ s⁻¹.

On to B2, for which the Kd was determined as 1600 pM, the koff worked out at 0.00107 s⁻¹ and the kon was found to be 660000 M⁻¹ s⁻¹.

B3: the Kd worked out at 3400 pM, the off-rate constant (koff) was determined as 0.0014 s⁻¹ and the kon was 406000 M⁻¹ s⁻¹.

As to B4, the Kd was 1400 pM, the koff was determined as 0.00113 s⁻¹ and the kon was 817000 M⁻¹ s⁻¹.

Molecule B11 displayed a Kd of 14000 pM, a koff of 0.00138 s⁻¹ and a kon of 100000 M⁻¹ s⁻¹.

Turning to B5, binding was characterised by a dissociation constant (Kd) of 700 pM, the dissociation rate constant (koff) was found to be 5.28e-05 s⁻¹ and the kon is 74900 M⁻¹ s⁻¹.

In the case of B6, binding was put at a Kd of 43000 pM, the koff came to 0.015 s⁻¹ and the kon was determined as 345000 M⁻¹ s⁻¹.

The molecule B12 registered a Kd of 9500 pM, a koff of 0.0016 s⁻¹ and a kon of 168000 M⁻¹ s⁻¹.

As to B13, the affinity, expressed as Kd, was 23000 pM; the koff was 0.00296 s⁻¹; the kon was found to be 129000 M⁻¹ s⁻¹.

The molecule B14 gave a Kd of 24000 pM, a koff of 0.00724 s⁻¹ and a kon of 300000 M⁻¹ s⁻¹.

The molecule B15 gave a Kd of 41000 pM, a koff of 0.00215 s⁻¹ and an on-rate (kon) of 53100 M⁻¹ s⁻¹.

In the case of B7, the Kd was found to be 2500 pM, the koff came out at 0.00064 s⁻¹ and the kon was 255000 M⁻¹ s⁻¹.

In turn, B16 returned a Kd not above 200 pM, a koff not above 1e-05 s⁻¹ and a kon of 43000 M⁻¹ s⁻¹.

Regarding B17, the affinity, expressed as Kd, was 5500 pM; the koff amounted to 0.000568 s⁻¹; the kon was 103000 M⁻¹ s⁻¹.

In a further experiment the target is T1, human c-fms, full length, on cells. Description: cell-based or functional assay. This is another data set of the same source.
For the molecule B1, the “AML-5 bioassay IC50” value was 27 pM and the “Human CD14+ monocytes bioassay IC50” value was 67 pM.

Turning to B2, the “AML-5 bioassay IC50” value was determined as 20 pM and the “Human CD14+ monocytes bioassay IC50” value amounted to 67 pM.

For the molecule B3, the “AML-5 bioassay IC50” value stood at 40 pM and the “Human CD14+ monocytes bioassay IC50” value was found to be 67 pM.

Regarding B4, the “AML-5 bioassay IC50” value was determined as 6 pM and the “Human CD14+ monocytes bioassay IC50” value is less than 7 pM.

On to B5, for which the “AML-5 bioassay IC50” value was 20 pM and the “Human CD14+ monocytes bioassay IC50” value was found to be 133 pM.

For the molecule B6, the “AML-5 bioassay IC50” value was 20 pM and the “Human CD14+ monocytes bioassay IC50” value is 47 pM.

For the molecule B7, the “AML-5 bioassay IC50” value turned out to be 4 pM and the “Human CD14+ monocytes bioassay IC50” value stood at 13 pM.

The target in the next experiment is T2, cynomolgus monkey c-fms on primary bone …. Description: cell-based or functional assay. This is another data set of the same source.
For the molecule B1, the “Cynomolgus bone marrow bioassay IC50” value was 47 pM.

For B2, the “Cynomolgus bone marrow bioassay IC50” value was determined as 200 pM.

Turning to B3, the “Cynomolgus bone marrow bioassay IC50” value was determined as 267 pM.

Regarding B4, the “Cynomolgus bone marrow bioassay IC50” value is 40 pM.
